Screen value data for eight variants are collected here from PMC5014551.

The labels stand for the following.
B1: Bol3-Strep [S. cerevisiae] / Grx5 [S. cerevisiae (endogenous in yeast mitochondria)] (parent)
chain 1: MKLPQTMLRSISVKHVRWPRILTGSKLWYSTQMAMTPEEKMITDKLQQELEPEVCKVQDVSGGCGSMFAINITSKKFNGLSLIKQHQLVNRILRDDISRWHGLQLTTKKSTGKGPASS
chain 2: LSTEIRKAIEDAIESAPVVLFMKGTPEFPKCGFSRATIGLLGNQGVDPAKFAAYNVLEDPELREGIKEFSEWPTIPQLYVNKEFIGGCDVITSMARSGELADLLEEAQALVPEEEEETKDR
B2: Bol3-Strep [S. cerevisiae] / Lip5 [S. cerevisiae (endogenous in yeast mitochondria)] (parent)
chain 1: B1 chain 1
chain 2: SSTIRCGTSATRPIRSNALNTDSDNASVRVPVGNSTEVENATSQLTGTSGKRRKGNRKRITEFKDALNLGPSFADFVSGKASKMILDPLEKARQNTEEAKKLPRWLKVPIPKGTNYHKLKGDVKELGLSTVCEEARCPNIGECWGGKDKSKATATIMLLGDTCTRGCRFCSVKTNRTPSKPDPMEPENTAEAIKRWGLGYVVLTTVDRDDLVDGGANHLAETVRKIKQKAPNTLVETLSGDFRGDLKMVDIMAQCGLDVYAHNLETVESLTPHVRDRRATYRQSLSVLERAKATVPSLITKTSIMLGLGETDEQITQTLKDLRNIQCDVVTFGQYMRPTKRHMKVVEYVKPEKFDYWKERALEMGFLYCASGPLVRSSYKAGEAFIENVLKKRNMK
B3: Bol3-Strep [S. cerevisiae] / Aco2 [S. cerevisiae (endogenous in yeast mitochondria)] (parent)
chain 1: B1 chain 1
chain 2: ATHANMFPSVSKNFQTKVPPYAKLLTNLDKIKQITNNAPLTLAEKILYSHLCDPEESITSSDLSTIRGNKYLKLNPDRVAMQDASAQMALLQFMTTGLNQTSVPASIHCDHLIVGKDGETKDLPSSIATNQEVFDFLESCAKRYGIQFWGPGSGIIHQIVLENFSAPGLMMLGTDSHTPNAGGLGAIAIGVGGADAVDALTGTPWELKAPKILGVKLTGKLNGWSTPKDVITKLAGLLTVRGGTGYIVEYFGEGVSTLSCTGMATICNMGAEIGATTSTFPYQEAHKRYLQATNRAEVAEAADVALNKFNFLRADKDAQYDKVIEIDLSAIEPHVNGPFTPDLSTPISQYAEKSLKENWPQKVSAGLIGSCTNSSYQDMSRVVDLVKQASKAGLKPRIPFFVTPGSEQIRATLERDGIIDIFQENGAKVLANACGPCIGQWNREDVSKTSKETNTIFTSFNRNFRARNDGNRNTMNFLTSPEIVTAMSYSGDAQFNPLTDSIKLPNGKDFKFQPPKGDELPKRGFEHGRDKFYPEMDPKPDSNVEIKVDPNSDRLQLLEPFKPWNGKELKTNVLLKVEGKCTTDHISAAGVWLKYKGHLENISYNTLIGAQNKETGEVNKAYDLDGTEYDIPGLMMKWKSDGRPWTVIAEHNYGEGSAREHAALSPRFLGGEILLVKSFARIHETNLKKQGVLPLTFANESDYDKISSGDVLETLNLVDMIAKDGNNGGEIDVKITKPNGESFTIKAKHTMSKDQIDFFKAGSAINYIGNIRRNE
B4: Bol3-Strep [S. cerevisiae] / Sdh2 [S. cerevisiae (endogenous in yeast mitochondria)] (parent)
chain 1: B1 chain 1
chain 2: TATTAAATHTPRLKTFKVYRWNPDEPSAKPHLQSYQVDLNDCGPMVLDALLKIKDEQDSTLTFRRSCREGICGSCAMNIGGRNTLACICKIDQNESKQLKIYPLPHMFIVKDLVPDLTNFYQQYKSIQPYLQRSSFPKDGTEVLQSIEDRKKLDGLYECILCACCSTSCPSYWWNQEQYLGPAVLMQAYRWLIDSRDQATKTRKAMLNNSMSLYRCHTIMNCTRTCPKGLNPGLAIAEIKKSLAFA
B5: Bol3-Strep [S. cerevisiae] / Aco1 [S. cerevisiae (endogenous in yeast mitochondria)] (parent)
chain 1: B1 chain 1
chain 2: ATVSNLTRDSKVNQNLLEDHSFINYKQNVETLDIVRKRLNRPFTYAEKILYGHLDDPHGQDIQRGVSYLKLRPDRVACQDATAQMAILQFMSAGLPQVAKPVTVHCDHLIQAQVGGEKDLKRAIDLNKEVYDFLASATAKYNMGFWKPGSGIIHQIVLENYAFPGALIIGTDSHTPNAGGLGQLAIGVGGADAVDVMAGRPWELKAPKILGVKLTGKMNGWTSPKDIILKLAGITTVKGGTGKIVEYFGDGVDTFSATGMGTICNMGAEIGATTSVFPFNKSMIEYLEATGRGKIADFAKLYHKDLLSADKDAEYDEVVEIDLNTLEPYINGPFTPDLATPVSKMKEVAVANNWPLDVRVGLIGSCTNSSYEDMSRSASIVKDAAAHGLKSKTIFTVTPGSEQIRATIERDGQLETFKEFGGIVLANACGPCIGQWDRRDIKKGDKNTIVSSYNRNFTSRNDGNPQTHAFVASPELVTAFAIAGDLRFNPLTDKLKDKDGNEFMLKPPHGDGLPQRGYDAGENTYQAPPADRSTVEVKVSPTSDRLQLLKPFKPWDGKDAKDMPILIKAVGKTTTDHISMAGPWLKYRGHLENISNNYMIGAINAENKKANCVKNVYTGEYKGVPDTARDYRDQGIKWVVIGDENFGEGSSREHAALEPRFLGGFAIITKSFARIHETNLKKQGLLPLNFKNPADYDKINPDDRIDILGLAELAPGKPVTMRVHPKNGKPWDAVLTHTFNDEQIEWFKYGSALNKIKADEKK
B6: Bol3-Strep [S. cerevisiae] / Bio2 [S. cerevisiae (endogenous in yeast mitochondria)] (parent)
chain 1: B1 chain 1
chain 2: TKYATNAAVKSTTASSEASTLGALQYALSLDEPSHSWTKSQLKEIYHTPLLELTHAAQLQHRKWHDPTKVQLCTLMNIKSGGCSEDCKYCAQSSRNDTGLKAEKMVKVDEVIKEAEEAKRNGSTRFCLGAAWRDMKGRKSAMKRIQEMVTKVNDMGLETCVTLGMVDQDQAKQLKDAGLTAYNHNIDTSREHYSKVITTRTYDDRLQTIKNVQESGIKACTGGILGLGESEDDHIGFIYTLSNMSPHPESLPINRLVAIKGTPMAEELADPKSKKLQFDEILRTIATARIVMPKAIIRLAAGRYTMKETEQFVCFMAGCNSIFTGKKMLTTMCNGWDEDKAMLAKWGLQPMEAFKYDRS
B7: Bol1-Strep [S. cerevisiae] / Grx5 [S. cerevisiae (endogenous in yeast mitochondria)] (parent)
chain 1: MFKRAMSTDGPVARTILKRLECGFPDYKNFAFGLYNDSHKHKGHAGVQGNVSAETHFRIEMVSKKFEGLKLPQRHRMVYSLLQDEMAQANGIHALQLSLKTPQEYESKAK
chain 2: B1 chain 2
B8: Bol3-Strep [S. cerevisiae] / Lys4 [S. cerevisiae (endogenous in yeast mitochondria)] (parent)
chain 1: B1 chain 1
chain 2: LKGQNLTEKIVQSYAVNLPEGKVVHSGDYVSIKPAHCMSHDNSWPVALKFMGLGATKIKNPSQIVTTLDHDIQNKSEKNLTKYKNIENFAKKHHIDHYPAGRGIGHQIMIEEGYAFPLNMTVASDSHSNTYGGLGSLGTPIVRTDAAAIWATGQTWWQIPPVAQVELKGQLPQGVSGKDIIVALCGLFNNDQVLNHAIEFTGDSLNALPIDHRLTIANMTTEWGALSGLFPVDKTLIDWYKNRLQKLGTNNHPRINPKTIRALEEKAKIPKADKDAHYAKKLIIDLATLTHYVSGPNSVKVSNTVQDLSQQDIKINKAYLVSCTNSRLSDLQSAADVVCPTGDLNKVNKVAPGVEFYVAAASSEIEADARKSGAWEKLLKAGCIPLPSGCGPCIGLGAGLLEPGEVGISATNRNFKGRMGSKDALAYLASPAVVAASAVLGKISSPAEVLSTSEIPFSGVKTEIIENPVVEEEVNAQTEAPKQSVEILEGFPREFSGELVLCDADNINTDGIYPGKYTYQDDVPKEKMAQVCMENYDAEFRTKVHPGDIVVSGFNFGTGSSREQAATALLAKGINLVVSGSFGNIFSRNSINNALLTLEIPALIKKLREKYQGAPKELTRRTGWFLKWDVADAKVVVTEGSLDGPVILEQKVGELGKNLQEIIVKGGLEGWVKSQL

The first experiment covers variants of B1. The experiment is described as follows: Strep-tag affinity purification with MS proteomics (spectral counts). The note with it: parent: 21, read off a plot.
For the variant chain 1 MKLPQTMLRSISVKHVRWPRILTGSKLWYSTQMAMTPEEKMITDKLQQELEPEVCKVQDVSGGCGSMFAINITSKKFNGLSLIKQHQLVNRILRDDISRWCGLQLTTKKSTGKGPASS [chain 1 H101C], the screen value came out at 18%.

Another experiment covers variants of B2. The description is as above. The note with it: parent: 10, read off a plot.
Take chain 1 MKLPQTMLRSISVKHVRWPRILTGSKLWYSTQMAMTPEEKMITDKLQQELEPEVCKVQDVSGGCGSMFAINITSKKFNGLSLIKQHQLVNRILRDDISRWCGLQLTTKKSTGKGPASS [chain 1 H101C]: the screen value was determined as 10%.

Variants of B3 are the subject of a further experiment. Described as above. The note with it: parent: 0, read off a plot.
With chain 1 MKLPQTMLRSISVKHVRWPRILTGSKLWYSTQMAMTPEEKMITDKLQQELEPEVCKVQDVSGGCGSMFAINITSKKFNGLSLIKQHQLVNRILRDDISRWCGLQLTTKKSTGKGPASS [chain 1 H101C], the screen value came out at 11%.

The variants in another experiment derive from B4. The description is as above. The note with it: parent: 32, read off a plot.
chain 1 MKLPQTMLRSISVKHVRWPRILTGSKLWYSTQMAMTPEEKMITDKLQQELEPEVCKVQDVSGGCGSMFAINITSKKFNGLSLIKQHQLVNRILRDDISRWCGLQLTTKKSTGKGPASS [chain 1 H101C]: the screen value amounted to 24%.

The variants in the next experiment derive from B5. Described as above. The note with it: parent: 10, read off a plot.
For chain 1 MKLPQTMLRSISVKHVRWPRILTGSKLWYSTQMAMTPEEKMITDKLQQELEPEVCKVQDVSGGCGSMFAINITSKKFNGLSLIKQHQLVNRILRDDISRWCGLQLTTKKSTGKGPASS [chain 1 H101C], the screen value was 22%.

Another experiment covers variants of B6. Described as above. The note with it: parent: 8, read off a plot.
Turning to chain 1 MKLPQTMLRSISVKHVRWPRILTGSKLWYSTQMAMTPEEKMITDKLQQELEPEVCKVQDVSGGCGSMFAINITSKKFNGLSLIKQHQLVNRILRDDISRWCGLQLTTKKSTGKGPASS [chain 1 H101C], the screen value came to 31%.

In another experiment the parent is B7. The experiment is described as above. The note with it: parent: 47, read off a plot.
As to chain 1 MFKRAMSTDGPVARTILKRLECGFPDYKNFAFGLYNDSHKHKGHAGVQGNVSAETHFRIEMVSKKFEGLKLPQRHRMVYSLLQDEMAQANGICALQLSLKTPQEYESKAK [chain 1 H93C], the screen value worked out at 5.9%.

The variants in the next experiment derive from B8. The description is as above. The note with it: parent: 10, read off a plot.
For chain 1 MKLPQTMLRSISVKHVRWPRILTGSKLWYSTQMAMTPEEKMITDKLQQELEPEVCKVQDVSGGCGSMFAINITSKKFNGLSLIKQHQLVNRILRDDISRWCGLQLTTKKSTGKGPASS [chain 1 H101C], the screen value came to 30%.
